Measured values taken from US20210388087A1 (Chugai, published 2021).

B1: H183/L072 VL L33Y (antibody, name in Kabat numbering, V domains shown)
VH: QVQLVESGGGLVQPGRSLRLSCAASGFTFSNAWMHWVRQAPGKGLEWVAQIKDKGNAYAAYYAPSVKGRFTISRDDSKNSIYLQMNSLKTEDTAVYYCHYVHYASASTVLPAFGVDAWGQGTTVTVSS
VL: DIVMTQSPLSLPVTPGEPASISCQASQELVHMNRNTYYHWYQQKPGQAPRLLIYKVSNRFPGVPDRFSGSGSGTDFTLKISRVEAEDVGVYYCAQGTSVPFTFGQGTKLEIK
notes: Dual-Ig
B2: H183/L072 VL M27eA (antibody, name in Kabat numbering, V domains shown)
VH: QVQLVESGGGLVQPGRSLRLSCAASGFTFSNAWMHWVRQAPGKGLEWVAQIKDKGNAYAAYYAPSVKGRFTISRDDSKNSIYLQMNSLKTEDTAVYYCHYVHYASASTVLPAFGVDAWGQGTTVTVSS
VL: DIVMTQSPLSLPVTPGEPASISCQASQELVHANRNTYLHWYQQKPGQAPRLLIYKVSNRFPGVPDRFSGSGSGTDFTLKISRVEAEDVGVYYCAQGTSVPFTFGQGTKLEIK
notes: Dual-Ig
B3: H183/L072 VL M27eD (antibody, name in Kabat numbering, V domains shown)
VH: QVQLVESGGGLVQPGRSLRLSCAASGFTFSNAWMHWVRQAPGKGLEWVAQIKDKGNAYAAYYAPSVKGRFTISRDDSKNSIYLQMNSLKTEDTAVYYCHYVHYASASTVLPAFGVDAWGQGTTVTVSS
VL: DIVMTQSPLSLPVTPGEPASISCQASQELVHDNRNTYLHWYQQKPGQAPRLLIYKVSNRFPGVPDRFSGSGSGTDFTLKISRVEAEDVGVYYCAQGTSVPFTFGQGTKLEIK
notes: Dual-Ig
B4: H183/L072 VL M27eE (antibody, name in Kabat numbering, V domains shown)
VH: QVQLVESGGGLVQPGRSLRLSCAASGFTFSNAWMHWVRQAPGKGLEWVAQIKDKGNAYAAYYAPSVKGRFTISRDDSKNSIYLQMNSLKTEDTAVYYCHYVHYASASTVLPAFGVDAWGQGTTVTVSS
VL: DIVMTQSPLSLPVTPGEPASISCQASQELVHENRNTYLHWYQQKPGQAPRLLIYKVSNRFPGVPDRFSGSGSGTDFTLKISRVEAEDVGVYYCAQGTSVPFTFGQGTKLEIK
notes: Dual-Ig
B5: H183/L072 VL M27eF (antibody, name in Kabat numbering, V domains shown)
VH: QVQLVESGGGLVQPGRSLRLSCAASGFTFSNAWMHWVRQAPGKGLEWVAQIKDKGNAYAAYYAPSVKGRFTISRDDSKNSIYLQMNSLKTEDTAVYYCHYVHYASASTVLPAFGVDAWGQGTTVTVSS
VL: DIVMTQSPLSLPVTPGEPASISCQASQELVHFNRNTYLHWYQQKPGQAPRLLIYKVSNRFPGVPDRFSGSGSGTDFTLKISRVEAEDVGVYYCAQGTSVPFTFGQGTKLEIK
notes: Dual-Ig
B6: H183/L072 VL M27eG (antibody, name in Kabat numbering, V domains shown)
VH: QVQLVESGGGLVQPGRSLRLSCAASGFTFSNAWMHWVRQAPGKGLEWVAQIKDKGNAYAAYYAPSVKGRFTISRDDSKNSIYLQMNSLKTEDTAVYYCHYVHYASASTVLPAFGVDAWGQGTTVTVSS
VL: DIVMTQSPLSLPVTPGEPASISCQASQELVHGNRNTYLHWYQQKPGQAPRLLIYKVSNRFPGVPDRFSGSGSGTDFTLKISRVEAEDVGVYYCAQGTSVPFTFGQGTKLEIK
notes: Dual-Ig
B7: H183/L072 VL M27eH (antibody, name in Kabat numbering, V domains shown)
VH: QVQLVESGGGLVQPGRSLRLSCAASGFTFSNAWMHWVRQAPGKGLEWVAQIKDKGNAYAAYYAPSVKGRFTISRDDSKNSIYLQMNSLKTEDTAVYYCHYVHYASASTVLPAFGVDAWGQGTTVTVSS
VL: DIVMTQSPLSLPVTPGEPASISCQASQELVHHNRNTYLHWYQQKPGQAPRLLIYKVSNRFPGVPDRFSGSGSGTDFTLKISRVEAEDVGVYYCAQGTSVPFTFGQGTKLEIK
notes: Dual-Ig
B8: H183/L072 VL M27eI (antibody, name in Kabat numbering, V domains shown)
VH: QVQLVESGGGLVQPGRSLRLSCAASGFTFSNAWMHWVRQAPGKGLEWVAQIKDKGNAYAAYYAPSVKGRFTISRDDSKNSIYLQMNSLKTEDTAVYYCHYVHYASASTVLPAFGVDAWGQGTTVTVSS
VL: DIVMTQSPLSLPVTPGEPASISCQASQELVHINRNTYLHWYQQKPGQAPRLLIYKVSNRFPGVPDRFSGSGSGTDFTLKISRVEAEDVGVYYCAQGTSVPFTFGQGTKLEIK
notes: Dual-Ig
B9: H183/L072 VL M27eK (antibody, name in Kabat numbering, V domains shown)
VH: QVQLVESGGGLVQPGRSLRLSCAASGFTFSNAWMHWVRQAPGKGLEWVAQIKDKGNAYAAYYAPSVKGRFTISRDDSKNSIYLQMNSLKTEDTAVYYCHYVHYASASTVLPAFGVDAWGQGTTVTVSS
VL: DIVMTQSPLSLPVTPGEPASISCQASQELVHKNRNTYLHWYQQKPGQAPRLLIYKVSNRFPGVPDRFSGSGSGTDFTLKISRVEAEDVGVYYCAQGTSVPFTFGQGTKLEIK
notes: Dual-Ig
B10: H183/L072 VL M27eL (antibody, name in Kabat numbering, V domains shown)
VH: QVQLVESGGGLVQPGRSLRLSCAASGFTFSNAWMHWVRQAPGKGLEWVAQIKDKGNAYAAYYAPSVKGRFTISRDDSKNSIYLQMNSLKTEDTAVYYCHYVHYASASTVLPAFGVDAWGQGTTVTVSS
VL: DIVMTQSPLSLPVTPGEPASISCQASQELVHLNRNTYLHWYQQKPGQAPRLLIYKVSNRFPGVPDRFSGSGSGTDFTLKISRVEAEDVGVYYCAQGTSVPFTFGQGTKLEIK
notes: Dual-Ig
B11: H183/L072 VL M27eN (antibody, name in Kabat numbering, V domains shown)
VH: QVQLVESGGGLVQPGRSLRLSCAASGFTFSNAWMHWVRQAPGKGLEWVAQIKDKGNAYAAYYAPSVKGRFTISRDDSKNSIYLQMNSLKTEDTAVYYCHYVHYASASTVLPAFGVDAWGQGTTVTVSS
VL: DIVMTQSPLSLPVTPGEPASISCQASQELVHNNRNTYLHWYQQKPGQAPRLLIYKVSNRFPGVPDRFSGSGSGTDFTLKISRVEAEDVGVYYCAQGTSVPFTFGQGTKLEIK
notes: Dual-Ig
B12: H183/L072 VL M27eP (antibody, name in Kabat numbering, V domains shown)
VH: QVQLVESGGGLVQPGRSLRLSCAASGFTFSNAWMHWVRQAPGKGLEWVAQIKDKGNAYAAYYAPSVKGRFTISRDDSKNSIYLQMNSLKTEDTAVYYCHYVHYASASTVLPAFGVDAWGQGTTVTVSS
VL: DIVMTQSPLSLPVTPGEPASISCQASQELVHPNRNTYLHWYQQKPGQAPRLLIYKVSNRFPGVPDRFSGSGSGTDFTLKISRVEAEDVGVYYCAQGTSVPFTFGQGTKLEIK
notes: Dual-Ig
B13: H183/L072 VL M27eQ (antibody, name in Kabat numbering, V domains shown)
VH: QVQLVESGGGLVQPGRSLRLSCAASGFTFSNAWMHWVRQAPGKGLEWVAQIKDKGNAYAAYYAPSVKGRFTISRDDSKNSIYLQMNSLKTEDTAVYYCHYVHYASASTVLPAFGVDAWGQGTTVTVSS
VL: DIVMTQSPLSLPVTPGEPASISCQASQELVHQNRNTYLHWYQQKPGQAPRLLIYKVSNRFPGVPDRFSGSGSGTDFTLKISRVEAEDVGVYYCAQGTSVPFTFGQGTKLEIK
notes: Dual-Ig
B14: H183/L072 VL M27eR (antibody, name in Kabat numbering, V domains shown)
VH: QVQLVESGGGLVQPGRSLRLSCAASGFTFSNAWMHWVRQAPGKGLEWVAQIKDKGNAYAAYYAPSVKGRFTISRDDSKNSIYLQMNSLKTEDTAVYYCHYVHYASASTVLPAFGVDAWGQGTTVTVSS
VL: DIVMTQSPLSLPVTPGEPASISCQASQELVHRNRNTYLHWYQQKPGQAPRLLIYKVSNRFPGVPDRFSGSGSGTDFTLKISRVEAEDVGVYYCAQGTSVPFTFGQGTKLEIK
notes: Dual-Ig
B15: H183/L072 VL M27eS (antibody, name in Kabat numbering, V domains shown)
VH: QVQLVESGGGLVQPGRSLRLSCAASGFTFSNAWMHWVRQAPGKGLEWVAQIKDKGNAYAAYYAPSVKGRFTISRDDSKNSIYLQMNSLKTEDTAVYYCHYVHYASASTVLPAFGVDAWGQGTTVTVSS
VL: DIVMTQSPLSLPVTPGEPASISCQASQELVHSNRNTYLHWYQQKPGQAPRLLIYKVSNRFPGVPDRFSGSGSGTDFTLKISRVEAEDVGVYYCAQGTSVPFTFGQGTKLEIK
notes: Dual-Ig
B16: H183/L072 VL M27eT (antibody, name in Kabat numbering, V domains shown)
VH: QVQLVESGGGLVQPGRSLRLSCAASGFTFSNAWMHWVRQAPGKGLEWVAQIKDKGNAYAAYYAPSVKGRFTISRDDSKNSIYLQMNSLKTEDTAVYYCHYVHYASASTVLPAFGVDAWGQGTTVTVSS
VL: DIVMTQSPLSLPVTPGEPASISCQASQELVHTNRNTYLHWYQQKPGQAPRLLIYKVSNRFPGVPDRFSGSGSGTDFTLKISRVEAEDVGVYYCAQGTSVPFTFGQGTKLEIK
notes: Dual-Ig
B17: H183/L072 VL M27eV (antibody, name in Kabat numbering, V domains shown)
VH: QVQLVESGGGLVQPGRSLRLSCAASGFTFSNAWMHWVRQAPGKGLEWVAQIKDKGNAYAAYYAPSVKGRFTISRDDSKNSIYLQMNSLKTEDTAVYYCHYVHYASASTVLPAFGVDAWGQGTTVTVSS
VL: DIVMTQSPLSLPVTPGEPASISCQASQELVHVNRNTYLHWYQQKPGQAPRLLIYKVSNRFPGVPDRFSGSGSGTDFTLKISRVEAEDVGVYYCAQGTSVPFTFGQGTKLEIK
notes: Dual-Ig
B18: H183/L072 VL M27eW (antibody, name in Kabat numbering, V domains shown)
VH: QVQLVESGGGLVQPGRSLRLSCAASGFTFSNAWMHWVRQAPGKGLEWVAQIKDKGNAYAAYYAPSVKGRFTISRDDSKNSIYLQMNSLKTEDTAVYYCHYVHYASASTVLPAFGVDAWGQGTTVTVSS
VL: DIVMTQSPLSLPVTPGEPASISCQASQELVHWNRNTYLHWYQQKPGQAPRLLIYKVSNRFPGVPDRFSGSGSGTDFTLKISRVEAEDVGVYYCAQGTSVPFTFGQGTKLEIK
notes: Dual-Ig
B19: H183/L072 VL M27eY (antibody, name in Kabat numbering, V domains shown)
VH: QVQLVESGGGLVQPGRSLRLSCAASGFTFSNAWMHWVRQAPGKGLEWVAQIKDKGNAYAAYYAPSVKGRFTISRDDSKNSIYLQMNSLKTEDTAVYYCHYVHYASASTVLPAFGVDAWGQGTTVTVSS
VL: DIVMTQSPLSLPVTPGEPASISCQASQELVHYNRNTYLHWYQQKPGQAPRLLIYKVSNRFPGVPDRFSGSGSGTDFTLKISRVEAEDVGVYYCAQGTSVPFTFGQGTKLEIK
notes: Dual-Ig
B20: H183/L072 VL N28A (antibody, name in Kabat numbering, V domains shown)
VH: QVQLVESGGGLVQPGRSLRLSCAASGFTFSNAWMHWVRQAPGKGLEWVAQIKDKGNAYAAYYAPSVKGRFTISRDDSKNSIYLQMNSLKTEDTAVYYCHYVHYASASTVLPAFGVDAWGQGTTVTVSS
VL: DIVMTQSPLSLPVTPGEPASISCQASQELVHMARNTYLHWYQQKPGQAPRLLIYKVSNRFPGVPDRFSGSGSGTDFTLKISRVEAEDVGVYYCAQGTSVPFTFGQGTKLEIK
notes: Dual-Ig
B21: H183/L072 VL N28E (antibody, name in Kabat numbering, V domains shown)
VH: QVQLVESGGGLVQPGRSLRLSCAASGFTFSNAWMHWVRQAPGKGLEWVAQIKDKGNAYAAYYAPSVKGRFTISRDDSKNSIYLQMNSLKTEDTAVYYCHYVHYASASTVLPAFGVDAWGQGTTVTVSS
VL: DIVMTQSPLSLPVTPGEPASISCQASQELVHMERNTYLHWYQQKPGQAPRLLIYKVSNRFPGVPDRFSGSGSGTDFTLKISRVEAEDVGVYYCAQGTSVPFTFGQGTKLEIK
notes: Dual-Ig

target: T1, Human CD137 ECD (human); experiment: Biacore SPR, vs parent H183/L072
T1 construct: entry includes C-terminal His-tag and biotin acceptor peptide; also called human CD137 extracellular domain; 4-1BB
T1 sequence (chain, as listed by the source limits assumed): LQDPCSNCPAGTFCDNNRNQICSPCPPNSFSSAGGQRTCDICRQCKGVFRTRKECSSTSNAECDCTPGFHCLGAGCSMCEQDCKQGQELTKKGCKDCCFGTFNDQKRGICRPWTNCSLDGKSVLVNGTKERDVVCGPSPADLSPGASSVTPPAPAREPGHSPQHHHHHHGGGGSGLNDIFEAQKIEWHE

fold change of affinity	Binder
0.1 fold	B1
1 fold	B2
0.7 fold	B3
0.9 fold	B4
0.7 fold	B5
0.7 fold	B6
0.8 fold	B7
0.9 fold	B8
1.1 fold	B9
0.8 fold	B10
0.8 fold	B11
1 fold	B12
1 fold	B13
1 fold	B14
0.9 fold	B15
0.9 fold	B16
0.9 fold	B17
0.7 fold	B18
0.7 fold	B19
0.4 fold	B20
0.2 fold	B21
